Laboratory results published in PMC4752726.
One block for each substance: values may come before it.

How the values were obtained:
Experiment in all cases: BLI
[1] = molecular target: C-terminally biotinylated FcγRIIIa made from FcγRIIIa-ST-H6 by sortase-mediated ligation (human) (UniProt P08637)
[2] = molecular target: High mannose IgG1 Fc (HM-Fc), di-glycosylated form (human)
[3] = molecular target: Man5-IgG1 Fc glycoform (Man5-Fc) (human)
[4] = molecular target: GlcNAc-IgG1 Fc glycoform (GlcNAc-Fc) (human)

Kd [1]: 995 nM
koff [1]: 0.161 s⁻¹
Substance: GlcNAc-IgG1 Fc glycoform (GlcNAc-Fc) (domain or fragment)

Kd [1]: 26.4 nM
koff [1]: 0.0079 s⁻¹
Substance: High mannose IgG1 Fc (HM-Fc), di-glycosylated form (domain or fragment)

Kd [1]: 32.8 nM
Substance: Man5-IgG1 Fc glycoform (Man5-Fc) (domain or fragment)

Substance: soluble domain of FcγRIIIa with a C-terminal histidine tag (FcγRIIIa-H6) (receptor)
Kd [2]: 27.7 nM
koff [2]: 0.0054 s⁻¹
kon [2]: 190000 M⁻¹ s⁻¹
Kd [3]: 31.8 nM
koff [3]: 0.0051 s⁻¹
kon [3]: 160000 M⁻¹ s⁻¹
Kd [4]: 1120 nM
koff [4]: 0.14 s⁻¹
kon [4]: 120000 M⁻¹ s⁻¹
